# Results taken from paper PMC9587256, “The retaining β-Kdo glycosyltransferase WbbB uses a double-displacement mechanism with an intermediate adduct rearrangement step” (Nature Communications, 2022).
# Numbering of substitutions follows the chain as printed.
# B1: WbbB_(GT99)-E158Q (domain or fragment)
# chain: LAVFLPPYPFRGLKAPYLWMFYKYLHCATDSILFITGEDYLSVTDDEAQRARWEFDPASMASLGYELPNAQSMACHEYLTLDNAFYETLLSRHHHDPIKSFSAFLTERIPDLETELHALLDSKKGIIDQIDTFISICNCPSLEHVARTLGKEVMHIQIGPLRAPMYRNTAYLDFAGVNGGTEASARYEKCQAEFDIKASLGDLHNYFLEVLPPAEAATHSAAGVVLQVEDDSNLIAYNHDFTNISLLSYVRQRYEKEDILVRAHPGSLFRLRDDVFTIDDSANSLAFINQCNEVFTINSSVGLEAILTGKKTTVLGDCSYAFINELAGASATVNAAAFYLFSYLVPFDLVFNQEYLKFRLGHPEEREIVGKHIEFYSADMPGSLSQAAHSLSSLINEAIS
# notes: source: ClearColi BL21 (DE3) E. coli, purified (IMAC, desalting)
# B2: WbbB_(GT99)-D232C (domain or fragment)
# chain: B1 chain with Q157E, D231C
# notes: source: ClearColi BL21 (DE3) E. coli, purified (IMAC, desalting), then reacted with the CMP-β-Kdo reaction mix
# B3: WbbB_(GT99)-D232N (domain or fragment)
# chain: B1 chain with Q157E, D231N
# modifications: Kdo modified in ~8% after the CMP-β-Kdo reaction mix; N-terminal methionine removed with variable efficiency
# notes: as for B2
# What was measured:
# [1] = molecular target: T1, WbbBGT99 (Klebsiella terrigena, UniProt Q6U8B0); assay: native MS and pepsin MS/MS after NaBH4 reduction of the enzyme-Kdo adduct; type: biochemical; settings: covalent; Kdo transferred to Asp232; donor generated in situ from CTP, Kdo and KdsB; Mg; 5 min then NaBH4, room temperature
# T1 construct: gene wbbB; WbbBGT99-His6 in pET28a, expressed in E. coli BL21(DE3) or ClearColi BL21(DE3); dimer in native MS
# [2] = molecular target: the molecule itself; assay: native MS; nanoESI, positive mode, UHMR Orbitrap; aqueous ammonium acetate 200 mM, pH 7, 25 °C; +21 charge state of the dimer; before or after reaction with the CMP-Kdo reaction mix
# T1 sequence (Q6U8B0 entry or part of it): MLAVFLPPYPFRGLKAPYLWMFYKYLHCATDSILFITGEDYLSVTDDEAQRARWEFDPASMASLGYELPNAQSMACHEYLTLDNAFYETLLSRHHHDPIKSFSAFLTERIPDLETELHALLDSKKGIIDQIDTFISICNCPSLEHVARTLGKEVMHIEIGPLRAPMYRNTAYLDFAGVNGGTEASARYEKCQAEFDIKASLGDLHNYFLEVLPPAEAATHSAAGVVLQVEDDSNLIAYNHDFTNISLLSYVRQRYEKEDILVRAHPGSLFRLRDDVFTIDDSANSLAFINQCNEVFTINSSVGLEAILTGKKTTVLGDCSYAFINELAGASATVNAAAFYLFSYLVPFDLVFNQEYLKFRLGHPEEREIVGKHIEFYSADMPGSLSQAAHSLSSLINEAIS
Molecule,native MS and pepsin MS/MS after NaBH4 reduction of the enzyme-Kdo adduct [1],stoichiometry N [2]
Nc1ccn([C@@H]2O[C@H](COP(=O)(O)O[C@@]3(C(=O)O)C[C@@H](O)[C@@H](O)[C@@H]([C@H](O)CO)O3)[C@@H](O)[C@H]2O)c(=O)n1 [CMP-β-Kdo],Asp232 is the sole residue that has been converted to homoserine,
B1,,2
B2,,2
B3,,2
